Data as given in PMC8826056, “Different Functions of IbRAP2.4, a Drought-Responsive AP2/ERF Transcription Factor, in Regulating Root Development Between Arabidopsis and Sweetpotato”.

B1: DRE probe (dsDNA)
DNA 1: TTGATACTACCGACATGAGTTGATACTACCGACATGAGTT
DNA 2: AACTCATGTCGGTAGTATCAACTCATGTCGGTAGTATCAA
B2: GCC-box probe (dsDNA)
DNA 1: TTCATAAGAGCCGCCACTCATAAGAGCCGCCACT
DNA 2: AGTGGCGGCTCTTATGAGTGGCGGCTCTTATGAA

Molecular target: GST-IbRAP2.4 (Ipomoea batatas (Sushu 16), UniProt A0A3S6I5T9 1-294)
Assay: EMSA; dose-dependent, 0.5-4 ug protein; unlabeled probe competes; 200 mM HEPES, 50 mM KCl, 5 mM DTT, 1 mM EDTA, 20 pmol poly dI-dC, 30 uL (so in the source), pH not stated; room temperature 30 min; 8% native PAGE
Details: protein: recombinant; tags: GST; label: 32P (T4 PNK, gamma-ATP); blunt (annealed oligonucleotide set)

GST-IbRAP2.4, sequence (A0A3S6I5T9 entry or part of it): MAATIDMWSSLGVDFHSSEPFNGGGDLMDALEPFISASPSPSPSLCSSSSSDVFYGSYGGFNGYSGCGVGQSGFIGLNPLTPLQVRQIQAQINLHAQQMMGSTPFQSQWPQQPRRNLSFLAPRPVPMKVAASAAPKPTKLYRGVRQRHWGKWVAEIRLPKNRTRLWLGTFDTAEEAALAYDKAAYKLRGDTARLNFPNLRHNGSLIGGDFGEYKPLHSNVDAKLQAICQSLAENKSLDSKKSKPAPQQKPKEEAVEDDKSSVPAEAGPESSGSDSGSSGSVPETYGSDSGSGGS

| Binder | binding result |
| --- | --- |
| B1 | binds |
| B2 | binds |
